# Earlier results, collected in article PMC8886532.
# Molecular target: kinetochore receptor (KNL1) (Homo sapiens) (UniProt Q8NG31)
# Chain of UniProt Q8NG31 (Q8NG31 whole entry): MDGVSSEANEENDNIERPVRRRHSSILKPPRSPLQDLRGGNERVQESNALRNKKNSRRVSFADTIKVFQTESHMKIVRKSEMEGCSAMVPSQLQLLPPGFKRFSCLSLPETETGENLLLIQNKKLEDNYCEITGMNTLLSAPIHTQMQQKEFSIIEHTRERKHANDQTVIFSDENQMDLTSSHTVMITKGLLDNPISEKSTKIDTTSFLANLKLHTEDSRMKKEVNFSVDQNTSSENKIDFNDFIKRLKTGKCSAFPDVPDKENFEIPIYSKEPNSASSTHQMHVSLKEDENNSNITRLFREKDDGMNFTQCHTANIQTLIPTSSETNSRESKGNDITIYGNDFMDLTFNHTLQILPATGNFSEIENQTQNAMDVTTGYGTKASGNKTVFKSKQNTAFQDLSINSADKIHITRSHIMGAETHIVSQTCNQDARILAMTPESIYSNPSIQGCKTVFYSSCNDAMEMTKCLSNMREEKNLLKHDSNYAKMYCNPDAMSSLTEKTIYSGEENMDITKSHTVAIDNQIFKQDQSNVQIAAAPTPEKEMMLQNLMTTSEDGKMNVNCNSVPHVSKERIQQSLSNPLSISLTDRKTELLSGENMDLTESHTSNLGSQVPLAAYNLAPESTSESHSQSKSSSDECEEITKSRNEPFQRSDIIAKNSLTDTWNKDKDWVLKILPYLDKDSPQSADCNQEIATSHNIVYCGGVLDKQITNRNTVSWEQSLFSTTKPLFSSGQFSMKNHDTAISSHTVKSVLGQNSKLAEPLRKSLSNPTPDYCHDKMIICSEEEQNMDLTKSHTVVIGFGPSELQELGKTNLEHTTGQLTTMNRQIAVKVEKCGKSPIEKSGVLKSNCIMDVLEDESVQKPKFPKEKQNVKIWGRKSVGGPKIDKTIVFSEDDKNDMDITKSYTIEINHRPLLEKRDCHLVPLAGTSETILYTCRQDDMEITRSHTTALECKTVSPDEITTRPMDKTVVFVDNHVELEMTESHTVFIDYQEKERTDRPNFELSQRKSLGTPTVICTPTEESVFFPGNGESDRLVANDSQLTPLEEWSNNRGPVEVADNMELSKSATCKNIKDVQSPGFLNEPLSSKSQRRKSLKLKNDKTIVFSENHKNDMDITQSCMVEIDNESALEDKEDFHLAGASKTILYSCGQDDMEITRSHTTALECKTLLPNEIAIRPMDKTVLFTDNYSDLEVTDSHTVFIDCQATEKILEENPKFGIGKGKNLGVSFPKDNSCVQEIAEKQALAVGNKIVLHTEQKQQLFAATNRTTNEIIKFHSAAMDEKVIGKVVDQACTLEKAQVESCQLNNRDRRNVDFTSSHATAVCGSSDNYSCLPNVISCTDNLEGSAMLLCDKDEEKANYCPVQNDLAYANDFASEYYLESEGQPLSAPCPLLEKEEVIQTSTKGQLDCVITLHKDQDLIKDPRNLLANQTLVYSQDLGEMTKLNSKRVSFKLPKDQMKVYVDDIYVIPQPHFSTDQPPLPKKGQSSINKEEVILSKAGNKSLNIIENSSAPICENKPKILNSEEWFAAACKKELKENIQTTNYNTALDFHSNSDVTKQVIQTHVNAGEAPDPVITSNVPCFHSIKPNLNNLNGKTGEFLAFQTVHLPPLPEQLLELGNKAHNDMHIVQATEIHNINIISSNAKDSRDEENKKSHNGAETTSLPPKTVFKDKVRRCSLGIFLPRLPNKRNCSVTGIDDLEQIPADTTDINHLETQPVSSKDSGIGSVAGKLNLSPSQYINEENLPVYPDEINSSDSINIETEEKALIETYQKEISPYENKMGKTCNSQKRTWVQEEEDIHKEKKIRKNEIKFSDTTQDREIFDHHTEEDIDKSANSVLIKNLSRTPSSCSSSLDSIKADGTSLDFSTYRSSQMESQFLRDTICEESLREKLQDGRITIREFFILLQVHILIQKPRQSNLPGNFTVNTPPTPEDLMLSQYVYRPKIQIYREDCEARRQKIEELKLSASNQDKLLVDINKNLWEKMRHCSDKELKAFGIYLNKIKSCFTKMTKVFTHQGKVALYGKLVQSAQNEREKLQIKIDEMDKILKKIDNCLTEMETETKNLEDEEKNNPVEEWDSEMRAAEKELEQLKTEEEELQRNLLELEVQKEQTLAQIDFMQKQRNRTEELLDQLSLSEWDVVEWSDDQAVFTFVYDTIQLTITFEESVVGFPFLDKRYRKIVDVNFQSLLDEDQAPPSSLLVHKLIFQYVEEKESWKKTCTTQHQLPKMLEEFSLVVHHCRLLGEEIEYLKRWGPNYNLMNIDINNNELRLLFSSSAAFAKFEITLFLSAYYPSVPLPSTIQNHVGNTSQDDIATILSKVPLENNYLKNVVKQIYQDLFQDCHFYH
substance,measurement,value
BUB1/BUB3 complex (from UniProt O43683),Kd,100 nM
